Experimental data published in PMC7545998, “A snake toxin as a theranostic agent for the type 2 vasopressin receptor” (Theranostics, 2020).
Like-named read-outs stand apart in the source and are kept apart here.

Key:
[1] = cited from earlier work
Method: Aprotinin and bikunin are two Kunitz peptides. Aprotinin is used clinically in acute pancreatitis, shock syndromes and hyperfibrinolytic hemorrhage. Bikunin is a protease Kunitz inhibitor that inhibits the invasiveness of tumor cells of various histological origins. Aprotinin [54] and bikunin [55] have similar T1/2α of 0.7 and 0.85 h and T1/2β of 7 and 6.4 h, respectively.

[2] = system: porcine kidney epithelial cells LLC-pk1; test: Confocal imaging of endogenous V2R in LLC-pk1 cells; format: cell-based; settings: 1 µM, 30-min pre-incubation
Method: In cells endogenously expressing V2R, such as porcine kidney epithelial cells LLC-pk1, labeling of V2R with AFDye-488-MQ1 and Cy5.5-MQ1 (100 nM) was performed with either fresh or PFA-fixed cells (Figures 7A and B). […] In the pathophysiological context, three renal cancer cell lines (CAKI-2, ACHN and A498 [38]) known to express V2R were tested. […] The presence of V2R, at the cell membrane level, fluctuated as a function of cell density and the number of cell divisions, whatever the cell line used. […] To our knowledge, this is the first specific ligand labeling of V2R in non-permeabilized cancer cells.
Freshly dissociated CHO, LLC-PK1 or renal cancer cell lines expressing vasopressin receptors were seeded on 12-mm glass coverslips pre-coated with poly-ornithine, cultured for 48 h before incubation in DMEM, 0.2 mg/mL BSA, 25 mM HEPES, pH 7.4 for 1 h at 12°C or 30 min at 22 °C with fluorescent analogues in the absence or presence of non-fluorescent ligands (30-min pre-incubation). After 3 washes with cold PBS, the cells were finally fixed in 4% PFA overnight at 4 °C and mounted with Mowiol. The fluorescent cells were imaged using a Zeiss LSM510 Meta confocal microscope equipped with a ×63 (NA 1.4) oil immersion objective. For excitation, available laser rays were 488 and 633 nm and emission signals were collected in multitracking mode with appropriate band pass filters. […]

[3] = in rats; cited from earlier work
Description: The intrinsic qualities needed to develop a good in vivo contrast agent are high molecular selectivity so as to label only the selected target, a high affinity, so that a low dose of the tracer can be injected, quick blood elimination to reduce background noise and long-term residence in the targeted organ. […] As a peptide, MQ1 is simple to engineer. […] We exemplified this statement by generating the first PET agent specific to V2R and two highly efficient spe ...

[4] = molecular target: T1, Type 2 vasopressin receptor (V2R) (Rattus norvegicus, UniProt Q00788); test: [3H]AVP competition radioligand binding
T1 chain: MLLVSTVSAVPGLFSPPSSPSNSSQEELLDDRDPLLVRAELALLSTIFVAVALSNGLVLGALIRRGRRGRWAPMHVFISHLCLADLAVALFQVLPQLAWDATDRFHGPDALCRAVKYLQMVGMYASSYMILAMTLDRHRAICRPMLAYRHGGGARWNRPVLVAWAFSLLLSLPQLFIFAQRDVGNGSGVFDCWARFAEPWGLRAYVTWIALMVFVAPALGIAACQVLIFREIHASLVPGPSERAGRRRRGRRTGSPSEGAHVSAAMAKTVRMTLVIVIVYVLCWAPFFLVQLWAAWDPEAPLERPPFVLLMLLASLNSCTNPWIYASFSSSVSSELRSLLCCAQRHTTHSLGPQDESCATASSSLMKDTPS

Molecule	T1/2α [1]	T1/2β [1]	also measured
Aprotinin [reference compound]	42 min	420 min	–
CCOc1ccc2c(c1)C1(CCC(OCCN3CCOCC3)CC1)C(=O)N2S(=O)(=O)c1ccc(C(=O)NC(C)(C)C)cc1OC (centres unmarked) [SR121463, reference compound]	–	–	effect on labeling by AFDye-488-MQ1 and Cy5.5-MQ1 [2]: inhibited the labeling
NC(=O)CC[C@@H]1NC(=O)[C@H](Cc2ccccc2)NC(=O)[C@H](Cc2ccc(O)cc2)NC(=O)[C@@H](N)CSSC[C@@H](C(=O)N2CCC[C@H]2C(=O)N[C@@H](CCCN=C(N)N)C(=O)NCC(N)=O)NC(=O)[C@H](CC(N)=O)NC1=O [AVP, arginine-vasopressin]	–	–	T1/2α [3]: 0.9 min; T1/2β [3]: 8 min
bikunin: protease Kunitz inhibitor that inhibits the invasiveness of tumor cells (protein, UniProt P02760 206-352, looked up, Inter-alpha-trypsin inhibitor light chain) Inter-alpha-trypsin inhibitor …: AVLPQEEEGSGGGQLVTEVTKKEDSCQLGYSAGPCMGMTSRYFYNGTSMACETFQYGGCMGNGNNFVTEKECLQTCRTVAACNLPIVRGPCRAFIQLWAFDAVKGKCVLFPYGGCQGNGNKFYSEKECREYCGVPGDGDEELLRFSN	51 min	384 min	–
Mambaquaretin (MQ1) (protein) RPSFCNLPVKPGPCNGFFSAFYYSQKTNKCHSFTYGGCKGNANRFSTIEKCRRTCVG	–	–	Ki [4]: 7.7 nM
